The values below are quoted from earlier work in patent US11911476B2, “Process for preparing a drug delivery composition” (PK MED SAS, priority 2017, dated 2024).

The conditions of this data set: temperature at which half of the drug loses its activity.

On to Adalimumab, for which the denaturation temperature entry is “about 75 °C”.

On to lysozyme, for which the denaturation temperature was 76 °C.
